B1: recombinant human ODAM, purified, His-tag cleaved (natural protein, UniProt A1E959 16-279, looked up)
chain: APLIPQRLMSASNSNELLLNLNNGQLLPLQLQGPLNSWIPPFSGILQQQQQAQIPGLSQFSLSALDQFAGLLPNQIPLTGEASFAQGAQAGQVDPLQLQTPPQTQPGPSHVMPYVFSFKMPQEQGQMFQYYPVYMVLPWEQPQQTVPRSPQQTRQQQYEEQIPFYAQFGYIPQLAEPAISGGQQQLAFDPQLGTAPEIAVMSTGEEIPYLQKEAINFRHDSAGVFMPSTSPKPSTTNVFTSAVDQTITPELPEEKDKTDSLREP
notes: ~32 kDa; also called hODAM; source: E. coli BL21(DE3)-star, purified (Ni-NTA, TEV cleavage, Superose 6 gel filtration); not shown: His6, N-terminal, cleaved

Experiments:
[1] = target: the molecule itself; test: SEC; Superose 6 GL 10/300 for ODAM, S200 for AMTN; 50 mM PB pH 7.4; purified recombinant human proteins, His-tag cleaved; self-association
[2] = target: B1; test: circular dichroism; far-UV CD (180-250 nm) of purified hODAM, hAMTN and their mixture in 50 mM PB pH 7.2; change of secondary structure on mixing; conditions: both partners purified

Binder	stoichiometry N [1]	binding result [2]
recombinant human AMTN, purified, His-tag cleaved (natural protein, UniProt Q6UX39 17-209, looked up, ~21 kDa; also called hAMTN; source: E. coli BL21(DE3)-star, purified (Ni-NTA, TEV cleavage, S200 gel filtration); not shown: His6, N-terminal, cleaved) LPQLKPALGLPPTKLAPDQGTLPNQQQSNQVFPSLSLIPLTQMLTLGPDLHLLNPAAGMTPGTQTHPLTLGGLNVQQQLHPHVLPIFVTQLGAQGTILSSEELPQIFTSLIIHSLFPGGILPTSQAGANPDVQDGSLPAGGAGVNPATQGTPAGRLPTPSGTDDDFAVTTPAGIQRSTHAIEEATTESANGIQ	5 subunits	binds
B1	12 to 13 subunits	–

Reference: paper PMC5402393, “Interactions of AMTN, ODAM and SCPPPQ1 proteins of a specialized basal lamina that attaches epithelial cells to tooth mineral” (Scientific Reports, 2017)
